Data: patent publication US20250101107A1

Biological target: human CD8 on human T cells (human) (UniProt P01732)
Assay: cell-based or functional assay

Chain of human CD8 on human T cells (human) (P01732 22-235, chain 1 of 2): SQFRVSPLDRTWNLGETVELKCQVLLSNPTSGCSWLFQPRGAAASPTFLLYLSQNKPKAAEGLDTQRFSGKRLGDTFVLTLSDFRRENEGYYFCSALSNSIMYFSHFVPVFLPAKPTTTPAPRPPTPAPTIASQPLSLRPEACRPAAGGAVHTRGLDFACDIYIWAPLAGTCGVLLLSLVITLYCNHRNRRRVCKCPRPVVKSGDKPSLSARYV
Chain of human CD8 on human T cells (human) (P10966 22-210, chain 2 of 2, further chain): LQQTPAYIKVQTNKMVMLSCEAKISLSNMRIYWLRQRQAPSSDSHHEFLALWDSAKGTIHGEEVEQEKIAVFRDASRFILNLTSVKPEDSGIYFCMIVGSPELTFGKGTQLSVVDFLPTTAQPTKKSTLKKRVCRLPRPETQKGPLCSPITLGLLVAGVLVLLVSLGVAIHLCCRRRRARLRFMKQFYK

| EC50 for stimulation of pSTAT4 signaling, CD8+ T cells in pre-activated human PBMCs [pM] | Binder |
| --- | --- |
| 1.74 | 02A01-Fab-IL12 (LC) (protein, from a related filing, not shown: a dimerising Fc or GST) VH: EVQLQQSGPELVKPGASLKISCKASGYTFTDFTMHWVKQSHGKSLEWIGLVNPNNGGNIYNQNFKGKATLTVDTSSSTAYMELRSLTSEDSSVYYCGRVPLYTSHGMDYWGQGTSVTVSS VL: DIVLTQSPAFLAVSLGQRATISCRASESVDSYDINSMHWYQQKPGQPPKLLIYRASHLQSGIPARFSGSGSRTDFTLTINFVEADDVATYYCQQSNEDPLTFGAGTKLELK |
| 2.11 | 02A01-Fab-Fc-IL12 (LC) (protein, from a related filing, not shown: a dimerising Fc or GST) VH: EVQLQQSGPELVKPGASLKISCKASGYTFTDFTMHWVKQSHGKSLEWIGLVNPNNGGNIYNQNFKGKATLTVDTSSSTAYMELRSLTSEDSSVYYCGRVPLYTSHGMDYWGQGTSVTVSS VL: DIVLTQSPAFLAVSLGQRATISCRASESVDSYDINSMHWYQQKPGQPPKLLIYRASHLQSGIPARFSGSGSRTDFTLTINFVEADDVATYYCQQSNEDPLTFGAGTKLELK |
| 11.1 | 03A01-Fab-IL12 (LC) (protein, from a related filing, not shown: a dimerising Fc or GST) VH: DVQFQESGPGLVKPSQSLSLTCTVTGYSITSDFAWNWIRQFPGNELEWMGYISYSGDTNYNPSLRSRISITRDTSKNQFFLQLDSVTTEDTATYYCTIRGYYTDSAFVFWGQGTLVTVSA VL: DIQMTQSSSYLSVSLGGRVTITCKASDHINNWLAWYQQKPGNAPRLLISGATSLETGVPSRFTGSGSGLDYTLSITSLQTEDVATYYCQQYWNSPFTFGSGTKLEIK |
| 13.4 | 03A01-Fab-Fc-IL12 (LC) (protein, from a related filing, not shown: a dimerising Fc or GST) VH: DVQFQESGPGLVKPSQSLSLTCTVTGYSITSDFAWNWIRQFPGNELEWMGYISYSGDTNYNPSLRSRISITRDTSKNQFFLQLDSVTTEDTATYYCTIRGYYTDSAFVFWGQGTLVTVSA VL: DIQMTQSSSYLSVSLGGRVTITCKASDHINNWLAWYQQKPGNAPRLLISGATSLETGVPSRFTGSGSGLDYTLSITSLQTEDVATYYCQQYWNSPFTFGSGTKLEIK |
